Experimental data published in US20080044413A1.
One block for each binder: values may come before it.

Molecular target: human EphA2 (human) (UniProt P29317)
Assay: cell-based or functional assay

- EC50 of redirected lysis, 51Cr release, A549, NK-depleted PBMC, E:T 10:1, 18 h: 0.17 µg/mL
- EC50 of redirected lysis, 51Cr release, MDA MB231, NK-depleted PBMC, E:T 10:1, 18 h: 0.0538 µg/mL
- EC50 of redirected lysis, 51Cr release, MDA MB231, second experiment: 0.086 µg/mL
B1: EphA2-BiTE EA2 (VL/VH) × deimmunized anti-CD3 (VH/VL) (bispecific antibody, part only; not given: anti-CD3 scFv, part only)
chain, part: DIKMTQSPSSMYASLGERVTITCKASQDINNYLSWFQQKPGKSPKTLIYRANRLVDGVPSRFSGSGSGQDYSLTISSLEYEDMGIYYCLKYDEFPYTFGGGTKLEIKGGGGSGGGGSGGGGSDVKLVESGGGLVKPGGSLKLSCAASGFTFSSYTMSWVRQTPEKRLEWVATISSGGTYTYYPDSVKGRFTISRDNAKNTLYLQMSSLKSEDTAMYYCTREAIFTYWGQGTLVTVSAGGGGSHHHHHH

- EC50 of redirected lysis, 51Cr release, A549: 0.184 µg/mL
- EC50 of redirected lysis, 51Cr release, A549, second experiment: 0.163 µg/mL
- EC50 of redirected lysis, 51Cr release, MDA MB231: 0.0559 µg/mL
- EC50 of redirected lysis, 51Cr release, MDA MB231, second experiment: 0.0721 µg/mL
B2: EphA2-BiTE EA2 (VH/VL) × deimmunized anti-CD3 (VH/VL) (bispecific antibody, part only; not given: anti-CD3 scFv, part only)
chain, part: DVKLVESGGGLVKPGGSLKLSCAASGFTFSSYTMSWVRQTPEKRLEWVATISSGGTYTYYPDSVKGRFTISRDNAKNTLYLQMSSLKSEDTAMYYCTREAIFTYWGQGTLVTVSAGGGGSGGGGSGGGGSDIKMTQSPSSMYASLGERVTITCKASQDINNYLSWFQQKPGKSPKTLIYRANRLVDGVPSRFSGSGSGQDYSLTISSLEYEDMGIYYCLKYDEFPYTFGGGTKLEIKGGGGSHHHHHH
